Among the data in publication PMC10484683 are binding result and binding signal values, retold here.

Series [1] addresses T1, CTCF ZF3-ZF11 (Homo sapiens, UniProt P49711 322-577).
T1 sequence: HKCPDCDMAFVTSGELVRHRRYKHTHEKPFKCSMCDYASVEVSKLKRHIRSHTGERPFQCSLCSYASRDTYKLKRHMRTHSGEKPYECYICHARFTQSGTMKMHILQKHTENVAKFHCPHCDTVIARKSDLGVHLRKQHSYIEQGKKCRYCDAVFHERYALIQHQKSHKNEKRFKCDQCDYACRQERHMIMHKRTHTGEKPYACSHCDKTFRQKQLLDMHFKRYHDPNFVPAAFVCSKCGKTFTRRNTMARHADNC
The series can be described thus: X-ray crystallography.

Series [2] concerns the target T2, CTCF ZF1-ZF7 (Homo sapiens, UniProt P49711 263-465).
T2 sequence: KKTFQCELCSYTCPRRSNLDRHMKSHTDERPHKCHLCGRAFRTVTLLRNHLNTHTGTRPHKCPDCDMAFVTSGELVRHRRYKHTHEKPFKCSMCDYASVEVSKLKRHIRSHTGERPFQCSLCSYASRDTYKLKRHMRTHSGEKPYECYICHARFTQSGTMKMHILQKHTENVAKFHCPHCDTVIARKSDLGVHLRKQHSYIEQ
The series can be described thus: fluorescence polarization. For orientation: Fluorescence polarisation rises when a labelled molecule tumbles more slowly, as on binding a larger partner.

In series [3] the target is T1, CTCF ZF3-ZF11. In words: X-ray crystallography. This is another data set of the same source.
For series [4], the target named is T2, CTCF ZF1-ZF7. In words: X-ray crystallography.

Read-outs that look alike come from different tables or passages of the source.

B1: 35-4 (dsDNA)
DNA 1: GTGCAGTACCACATTTAACCAGCAGGGGGCGCTAA
DNA 2: TTAGCGCCCCCTGCTGGTTAAATGTGGTACTGCAC
Take B1: the binding result with CTCF ZF3-ZF11 [1] is recorded as “binds”.

B2: FP oligo X:Y=A:T (dsDNA)
DNA 1: AGGACCAGCAGGGGACGCA
DNA 2: TGCGTCCCCTGCTGGTCCT
With B2, the binding signal in the series with CTCF ZF1-ZF7 [2] was 7 fold reduced affinity vs G:C.

B3: 19-bp (dsDNA)
DNA 1: TGCGCCCCCTGCTGGTCCT
DNA 2: AGGACCAGCAGGGGGCGCA
As to B3, the binding result with CTCF ZF3-ZF11 [3] is on record as “binds”.

B4: 23-bp (dsDNA)
DNA 1: GCCAGCAGGGGGCGCTAGTGAGG
DNA 2: CCTCACTAGCGCCCCCTGCTGGC
Regarding B4, in the series with CTCF ZF1-ZF7 [4], the binding result is listed as “binds”.
